Target: T1, SegC1-155 (UniProt Q981B4 1-155, del156-165)
T1 sequence: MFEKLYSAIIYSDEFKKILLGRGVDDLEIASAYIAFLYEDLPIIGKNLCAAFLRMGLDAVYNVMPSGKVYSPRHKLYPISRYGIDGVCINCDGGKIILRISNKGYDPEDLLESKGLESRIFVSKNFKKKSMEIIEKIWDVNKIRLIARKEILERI
Experiment: fluorescence polarization; FP: 20 mM Tris-HCl pH 7.5, 100 mM NaCl, 2 mM MgCl2, 5 nM Cy3-DNA, room temperature; EMSA: same buffer, 10 nM Cy3-DNA, 37 C 30 min, 4-12% TBE gel
Conditions: protein: recombinant; tags: C-terminal His6; label: 5' Cy3; 20 bp paired with 3' overhang 1 nt at each end (from printed strands)

B1: 21-bp site 1 (S1) dsDNA (dsDNA)
DNA 1: ACGTAGAAGAGTCTAGACTGA
DNA 2: CAGTCTAGACTCTTCTACGTA
B1: no binding.

Reference: article PMC11381335, “Unraveling the structure and function of a novel SegC protein interacting with the SegAB chromosome segregation complex in Archaea” (Nucleic Acids Research, 2024)
